According to US20080214462:
Numbering of substitutions follows the chain as printed. Numbers in names are those of the source.

Target: factor X (FX), P00742
Sequence (P00742 whole entry, looked up): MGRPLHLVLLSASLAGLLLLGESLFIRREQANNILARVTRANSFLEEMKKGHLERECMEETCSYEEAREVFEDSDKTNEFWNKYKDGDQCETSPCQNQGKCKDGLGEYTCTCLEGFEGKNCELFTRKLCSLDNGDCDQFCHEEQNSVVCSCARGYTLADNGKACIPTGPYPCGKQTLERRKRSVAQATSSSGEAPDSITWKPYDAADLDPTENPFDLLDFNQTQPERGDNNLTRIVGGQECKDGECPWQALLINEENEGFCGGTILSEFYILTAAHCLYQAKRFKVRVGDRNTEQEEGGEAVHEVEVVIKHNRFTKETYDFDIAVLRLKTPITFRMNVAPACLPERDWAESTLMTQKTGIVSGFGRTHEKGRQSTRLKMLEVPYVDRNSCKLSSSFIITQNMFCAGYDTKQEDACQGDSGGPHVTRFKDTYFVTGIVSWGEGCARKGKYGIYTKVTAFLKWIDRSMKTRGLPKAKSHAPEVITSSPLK

B1: FIXa-Y94F/K98T/Y177F (protein)
chain: YNSGKLEEFVQGNLERECMEEKCSFEEAREVFENTERTTEFWKQYVDGDQCESNPCLNGGSCKDDINSYECWCPFGFEGKNCELDVTCNIKNGRCEQFCKNSADNKVVCSCTEGYRLAENQKSCEPAVPFPCGRVSVSQTSKLTRAEAVFPDVDYVNSTEAETILDNITQSTQSFNDFTRVVGGEDAKPGQFPWQVVLNGKVDAFCGGSIVNEKWIVTAAHCVETGVKITVVAGEHNIEETEHTEQKRNVIRIIPHHNFNAAINTYNHDIALLELDEPLVLNSYVTPICIADKEYTNIFLKFGSGYVSGWGRVFHKGRSALVLQYLRVPLVDRATCLRSTKFTIFNNMFCAGFHEGGRDSCQGDSGGPHVTEVEGTSFLTGIISWGEECAMKGKYGIYTKVSRYVNWIKEKTKLT
aPTT in FIX-depleted plasma: pdFIXa equivalent activity given for 0.5 µg/mL of FIXa protein (µg/mL pdFIXa activity): 1

B2: FIXa-Y94F/K98T/Y177F/I213V/E219G (protein)
chain: B1 chain with I383V, E388G
aPTT in FIX-depleted plasma: pdFIXa equivalent activity given for 0.5 µg/mL of FIXa protein (µg/mL pdFIXa activity): 14.4
